Measurements: patent publication US8071348B2, “Protein tyrosine phosphatase substrate-trapping double mutant and uses thereof” (Albert Einstein College of Medicine of Yeshiva University, priority 2002, dated 2011)
Like-named read-outs stand apart in the source and are kept apart here.

T1: EGFR 988-998 peptide DADEpYLIPQQG
T1 chain: DADEXLIPQQG

T2: EGFR^988-998 peptide, DADEpYLIPQQG (Homo sapiens, UniProt P18031, Q262A)
T2 construct: The catalytic domain of PTP1B (residues 1 to 321) was used for in vitro study; made in house; host or cells: E. coli (pT7-7 plasmids)
T2 sequence (P18031 1-321 Q262A): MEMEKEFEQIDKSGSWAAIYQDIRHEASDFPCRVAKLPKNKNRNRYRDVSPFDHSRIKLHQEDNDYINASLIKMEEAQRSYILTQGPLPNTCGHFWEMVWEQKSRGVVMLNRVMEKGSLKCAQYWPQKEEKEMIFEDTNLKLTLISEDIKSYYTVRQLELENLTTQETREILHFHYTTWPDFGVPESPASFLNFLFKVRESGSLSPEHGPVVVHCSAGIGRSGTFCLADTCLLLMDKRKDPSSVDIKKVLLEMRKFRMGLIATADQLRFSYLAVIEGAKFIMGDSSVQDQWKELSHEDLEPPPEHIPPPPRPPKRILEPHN


What was measured:
[1] = tested on: EGFR^988-998 peptide, DADEpYLIPQQG; test: Kinetic constants for PTP1B-catalyzed hydrolysis of pTyr-containing EGFR988-998 peptide; assay type: biochemical; conditions: EGFR988-998 peptide as substrate; 25° C. and pH 7.0
Excerpt: (§1) The catalytic domain of PTP1B (residues 1 to 321) was used for in vitro study. PTP1B mutants, C215S, D181A, and Q262A, were described previously (9, 25, 26). PTP1B double mutants, D181A/C215S and C215S/Q262A, were generated by PCR reactions, according to the standard procedure of the Quick-Change™ site-directed mutagenesis kit (Stratagene), using pT7-7/PTP1B/C215S as a template. PTP1B double mutants, D181A/C215E and D181A/Q262A, were generated by similar PCR procedures, using pT7-7/PTP1B/D181A as a template. The recombinant wild-type and mutant PTP1Bs were expressed in E. coli, and purified to homogeneity as described (25, 27). Protein concentration was determined from absorbance measurement at 280 nm, using an absorbance coefficient of 1.24 for 1 mg/ml PTP1B.
All assays were performed at 25° C. in buffer (pH 7.0, ionic strength=0.15 M) containing 50 mM 3,3-dimethylglutarate and 1 mM EDTA. A continuous spectrophotometric assay, previously described (28), was employed to determine kcat and Km for the pTyr-containing peptides. The dephosphorylation reaction was monitored by either an increase in absorbance at 282 nm, or an increase in fluorescence at 305 nm. Fluorometric and absorbance determinations were performed on a Perkin-Elmer LS50B fluorometer and a Perkin-Elmer Lambda 14 spectrophotometer, respectively. The instruments were equipped with a water-jacketed cell holder, permitting maintenance of the reaction mixture at the desired temperature (25° C.).

[2] = molecular target: Ac-Asp-Ala-Asp-Glu-F2Pmp-Leu-NH2; conditions: ITC, 25° C. and pH 7.0; data from (24); cited from earlier work
[3] = Kinetic constants for PTP1B-catalyzed hydrolysis of pNPP; assay type: biochemical; conditions: pNPP as substrate; 25° C. and pH 7.0
Excerpt: as §1
PTP activity was assayed at 25° C. and pH 7.0, in a reaction mixture (0.2 ml) containing pNPP concentrations ranging from 0.2 to 5 Km. The following buffered solution was used for activity measurements: pH 7.0, 50 mM 3,3-dimethylglutarate, 1 mM EDTA; the ionic strength was 0.15 M, as adjusted by addition of NaCl. Initial rate measurements for the enzyme-catalyzed hydrolysis of pNPP were conducted as previously described (26). Michaelis-Menten kinetic parameters were determined from a direct fit of the data to the Michaelis-Menten equation, using the nonlinear regression program, KINETASYST (Intellikinetics, State College, Pa.).

EGF receptor = test: Substrate protection: EGF receptor tyrosine phosphorylation in COS1 cells expressing PTP1B forms (anti-pTyr Western blot); assay type: cell-based, Monkey; conditions: COS1 cell lysates, anti-pTyr immunoblot (FIG. 4)
Protocol: FIG. 4 sets forth Western blots (WB) that show the level of tyrosine phosphorylation in the epidermal growth factor receptor (EGFR) upon expression of the wild-type and mutant PTP1Bs (4 μg plasmid/60 mm dish) in COS1 cells. Samples (50 μg total protein) were taken from the lysates of COS1 cells transfected with 4 μg of pJ3H plasmids expressing HA-tagged wild-type PTP1B, D181A, C215S, D181A/Q262A, or D181A/C215S. These samples were loaded into each lane for SDS-PAGE electrophoresis, and transferred onto a nitrocellulose membrane. The proteins on the membrane were first immunoblotted with anti-pTyr HRP conjugate (upper panel). The membrane was then stripped and re-probed with anti-hemagglutinin (anti-HA) HRP conjugate (lower panel).
The hemagglutinin-tagged (HA-tagged) full-length human wild-type PTP1B in pJ3H expression vector was a gift from Dr. Chemoff (30). The HA-tagged PTP1B mutants, C215S, D181A, D181A/C215S, and D181A/Q262A, were generated by PCR reactions, according to the standard procedure of the Quick-Change™ site-directed mutagenesis kit (Stratagene), using pJ3H-HA-PTP1B as a template. All mutations were verified by DNA sequencing.
Monkey kidney COS1 cells (ATCC: CRL-1650) were maintained in Dulbecco's modified Eagle's minimum essential medium (DMEM), supplemented with 10% fetal bovine serum (Life Technologies, Inc.), penicillin (50 units/ml), streptomycin (50 μg/ml), and L-glutamine (2 mM) under a humidified atmosphere containing 5% CO2. In transient transfection experiments, COS1 cells were inoculated at a density of 2×10^5 cells/60-mm dish, and grown overnight in DMEM containing 10% fetal bovine serum. Transfection was performed using LipoTAXI^R according to the manufacturer's recommendations (Stratagene, Cedar Creek, Tex.). Each transfection assay included 4 μg of purified DNA mixed with LipoTAXI^R in a 1:5 DNA:lipid ratio per 60-mm dish of cells. Following transfection, the cells were exchanged to normal culture medium, and maintained for 44 to 48 h at 37° C. and 5% CO2. The efficiency of transfection, as assessed by 5-bromo-4-chloro-3-indolyl-β-D galactoside (X-Gal) staining of pCMV-β-gal-transfected (β-Gal staining kit, Invitrogen) COS cells, was 25%.
The transfected cells (treated with or without EGF) were lysed with “lysis buffer” containing 50 mM Tris-HC1 (pH 7.5), 5 mM EDTA, 150 mM NaCl, 10 mM sodium phosphate, 10 mM sodium fluoride, 5 mM iodoacetic acid, 1 mM benzamidine, 1% Triton X-100, 10 μg/ml leupeptin, and 5 μg/ml Aprotinin. Lysate protein concentration was estimated using Bio-Rad protein assay reagent (Bio-Rad, Hercules, Calif.).
For immunoprecipitation, 1 mg of cell lysate was immunoprecipitated overnight with 30 μl of agarose-conjugated anti-hemagglutinin antibody at 4° C. Immunocomplexes were washed four times with the cell lysis buffer, and boiled for 5 min in SDS-PAGE sample buffer. Proteins in the cell lysate were separated by 8% SDS-PAGE under reducing conditions, according to the method of Laemmli (31), followed by blotting onto nitrocellulose membranes (Protran, Schleicher & Schuell). The nitrocellulose membranes were blocked with 5% non-fat dry milk in Tris-buffered saline/Tween (TBST) buffer (20 mM Tris-HC1, 150 mM NaCl, 0.1% Tween-20; pH 7.6) for 1 h at 25° C.
Thereafter, blots were incubated overnight with primary antibodies diluted in TBST containing 5% non-fat dry milk at 4° C. […]

[4] = molecular target: T1, EGFR 988-998 peptide DADEpYLIPQQG
[5] = pNPP as substrate, cited from earlier work
[6] = molecular target: T2, EGFR^988-998 peptide, DADEpYLIPQQG; conditions: cited from earlier work
[7] = EGFR988-998 peptide as substrate, 30° C. and pH 7.0 (26)
[8] = hydrolysis of EGFR988-998 peptide and phosphorylated lysozyme, previous kinetic studies (18, 26)

| Molecule | Km [1] [µM] | kcat [1] [s^−] | Kd [2] [µM] | Km [3] [µM] | kcat [3] [s⁻¹] | level of pTyr in the EGF receptor / enhancement of EGF receptor phosphorylation (EGF receptor) | Km (hydrolysis of the EGFR 988-998 peptide, 25 C, pH 7.0) [4] [µM] | Km ([5]; 30° C. and pH 7.0 (26)) [µM] | kcat ([5]; 30° C. and pH 7.0 (26)) [s⁻¹] | fold reduction of kcat ([5]; (26)) [fold] | fold decrease in Km ([5]; shown previously (26)) [fold] | Km [6, 7] [µM] | kcat [6, 7] [s^−] | fold reduction of kcat ([6]; EGFR988-998 peptide as substrate, (26)) [fold] | fold decrease in Km ([6]; EGFR988-998 peptide as substrate, shown previously (26)) [fold] | fold reduction of kcat [6, 8] [fold] | fold reduction of kcat/Km [6, 8] [fold] |
| --- | --- | --- | --- | --- | --- | --- | --- | --- | --- | --- | --- | --- | --- | --- | --- | --- | --- |
| wild-type PTP1B, catalytic domain (residues 1 to 321) (protein) MEMEKEFEQIDKSGSWAAIYQDIRHEASDFPCRVAKLPKNKNRNRYRDVSPFDHSRIKLHQEDNDYINASLIKMEEAQRSYILTQGPLPNTCGHFWEMVWEQKSRGVVMLNRVMEKGSLKCAQYWPQKEEKEMIFEDTNLKLTLISEDIKSYYTVRQLELENLTTQETREILHFHYTTWPDFGVPESPASFLNFLFKVRESGSLSPEHGPVVVHCSAGIGRSGTFCLADTCLLLMDKRKDPSSVDIKKVLLEMRKFRMGLIQTADQLRFSYLAVIEGAKFIMGDSSVQDQWKELSHEDLEPPPEHIPPPPRPPKRILEPHN | 2.6 ± 0.3 | 30 ± 1 | 0.24 ± 0.05 | 2400 ± 200 | 9.8 ± 0.5 | comparable to that in the vector control | 2.6 | – | – | – | – | – | – | – | – | – | – |
| Q262A: PTP1B mutant, Gln262 replaced by Ala, described previously (protein, UniProt P18031 1-435, looked up, variant Q262A) Tyrosine-protein phosphatase …: MEMEKEFEQIDKSGSWAAIYQDIRHEASDFPCRVAKLPKNKNRNRYRDVSPFDHSRIKLHQEDNDYINASLIKMEEAQRSYILTQGPLPNTCGHFWEMVWEQKSRGVVMLNRVMEKGSLKCAQYWPQKEEKEMIFEDTNLKLTLISEDIKSYYTVRQLELENLTTQETREILHFHYTTWPDFGVPESPASFLNFLFKVRESGSLSPEHGPVVVHCSAGIGRSGTFCLADTCLLLMDKRKDPSSVDIKKVLLEMRKFRMGLIATADQLRFSYLAVIEGAKFIMGDSSVQDQWKELSHEDLEPPPEHIPPPPRPPKRILEPHNGKCREFFPNHQWVKEETQEDKDCPIKEEKGSPLNAAPYGIESMSQDTEVRSRVVGGSLRGAQAASPAKGEPSLPEKDEDHALSYWKPFLVNMCVATVLTAGAYLCYRFLFNSNT | – | – | – | – | – | – | – | 58 ± 6 | 0.21 ± 0.01 | 80 | 38 | 0.35 ± 0.05 | 0.29 ± 0.002 | 150 | 7.4 | 100 | 10 |
